# Measurements reported in patent US20230242902A1, “A HIGHLY ERROR-PRONE […] R[…] FOR TARGETED CONTINUOUS EVOLUTION IN VIVO” (The Regents of the University of California, priority 2017, published 2023).
# Tested on: p1
# Assay: p1 copy number by p1-encoded mKate2 fluorescence
# Type: cell-based, S. cerevisiae
# Details: OR-Y24, measured in triplicate
# In short: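 Copy number was inferred from p1-encoded mKate2 fluorescence in saturated OR-Y24 cultures (triplicate), calibrated linearly against qPCR of p1 leu2 relative to genomic LEU3.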
row,Molecule,Mean fold-increase over w.t. (p1 copy number)
1,A709N: TP-DNAP1 variant (protein) MDYKDKALNDLRNVYADFDSLPLDFRQILIKDRATLLQKEDVEKKILERQEDAKKYAEYLKQSEIPERISLPNIKRHKGVSISFEETSEDMVLEPRPFIFDGLNIRCFRRETIFSLKNKILNMVKESSSFKNVSRQSVSFMYFKIFNKGKVIASTKSVNIYEDKIDERLEDLCNNFDDVLKKIIDVTYGYESLFVSETYSYVIFYAKSIYFPQPRCVNNWGNNIPNILTFDSFKLFTANKNNVSCIKQCSRFLWQKDFNTLEEMIEYKNGNICIVTPQLHINDVRDIKSFNDIRLYSESPIKTFSVIDNTITYLFYFKEHLGVIFNITKSRHDRRVTKFSPLSKFSDVKNITVCFDIESYFDPEKESNQVNIPFICCASIIYNKVIGNIVDFEGRDCVAQMIEYVVDICGELNISSVELIAHNGGGYDFHYILSSMYNPAAIKNILIRNNSFISFNFAHDGVKFSVKDSYSFLLCSLANASKAFLNEETFKKTDFPHHDLKTADDLYKVYKEWSSVNTEINHVVEKEKLLITSEHIVNFTKNDKSKTLIEWSKDYCRNDVLVLSKVWLEFKNAVEDIFNCELVDQTMTLAGLSYKLFQANMPFDVELRHPNKEDYFNMREALIGGRCISVNGIYKDVLCLDVKSLYPASMAFYDQPYGSFKRVSSRPKDELGIYYVRVTPNRNNKSNFFPIRSHNKITYNNFEESTYINWYTNVDIDIGLSEGHNIEYIPFDSYGNIGYSWSKKGKIFEKYIKDVLYKLKIKYEKQNNKVKRNVIKIIMNSLWGKFAQKWVNFEYFIKSEDDIDFESEEAYKIWDTDFMLIKKIKESTYSSKPIQNGVFTLSWARYHMKSIWDAGAKEGAECIYSDTDSIFVHKEHFKKNAKFMLNGLKVPIIGSEVGQLELECEFDKLLCAGKKQYMGFYTYFQDGKPCIKEKKRFKGIPSNYIIPELYAHLLSGADKEAKIQFLKFRREWGSVKGYIENKTVKAT,2.01 fold
2,S733R: TP-DNAP1 variant (protein) MDYKDKALNDLRNVYADFDSLPLDFRQILIKDRATLLQKEDVEKKILERQEDAKKYAEYLKQSEIPERISLPNIKRHKGVSISFEETSEDMVLEPRPFIFDGLNIRCFRRETIFSLKNKILNMVKESSSFKNVSRQSVSFMYFKIFNKGKVIASTKSVNIYEDKIDERLEDLCNNFDDVLKKIIDVTYGYESLFVSETYSYVIFYAKSIYFPQPRCVNNWGNNIPNILTFDSFKLFTANKNNVSCIKQCSRFLWQKDFNTLEEMIEYKNGNICIVTPQLHINDVRDIKSFNDIRLYSESPIKTFSVIDNTITYLFYFKEHLGVIFNITKSRHDRRVTKFSPLSKFSDVKNITVCFDIESYFDPEKESNQVNIPFICCASIIYNKVIGNIVDFEGRDCVAQMIEYVVDICGELNISSVELIAHNGGGYDFHYILSSMYNPAAIKNILIRNNSFISFNFAHDGVKFSVKDSYSFLLCSLANASKAFLNEETFKKTDFPHHDLKTADDLYKVYKEWSSVNTEINHVVEKEKLLITSEHIVNFTKNDKSKTLIEWSKDYCRNDVLVLSKVWLEFKNAVEDIFNCELVDQTMTLAGLSYKLFQANMPFDVELRHPNKEDYFNMREALIGGRCISVNGIYKDVLCLDVKSLYPASMAFYDQPYGSFKRVSSRPKDELGIYYVRVTPNRNNKSNFFPIRSHNKITYNNFEESTYIAWYTNVDIDIGLSEGHNIEYIPFDRYGNIGYSWSKKGKIFEKYIKDVLYKLKIKYEKQNNKVKRNVIKIIMNSLWGKFAQKWVNFEYFIKSEDDIDFESEEAYKIWDTDFMLIKKIKESTYSSKPIQNGVFTLSWARYHMKSIWDAGAKEGAECIYSDTDSIFVHKEHFKKNAKFMLNGLKVPIIGSEVGQLELECEFDKLLCAGKKQYMGFYTYFQDGKPCIKEKKRFKGIPSNYIIPELYAHLLSGADKEAKIQFLKFRREWGSVKGYIENKTVKAT,1.98 fold
3,S733N: TP-DNAP1 variant (protein) MDYKDKALNDLRNVYADFDSLPLDFRQILIKDRATLLQKEDVEKKILERQEDAKKYAEYLKQSEIPERISLPNIKRHKGVSISFEETSEDMVLEPRPFIFDGLNIRCFRRETIFSLKNKILNMVKESSSFKNVSRQSVSFMYFKIFNKGKVIASTKSVNIYEDKIDERLEDLCNNFDDVLKKIIDVTYGYESLFVSETYSYVIFYAKSIYFPQPRCVNNWGNNIPNILTFDSFKLFTANKNNVSCIKQCSRFLWQKDFNTLEEMIEYKNGNICIVTPQLHINDVRDIKSFNDIRLYSESPIKTFSVIDNTITYLFYFKEHLGVIFNITKSRHDRRVTKFSPLSKFSDVKNITVCFDIESYFDPEKESNQVNIPFICCASIIYNKVIGNIVDFEGRDCVAQMIEYVVDICGELNISSVELIAHNGGGYDFHYILSSMYNPAAIKNILIRNNSFISFNFAHDGVKFSVKDSYSFLLCSLANASKAFLNEETFKKTDFPHHDLKTADDLYKVYKEWSSVNTEINHVVEKEKLLITSEHIVNFTKNDKSKTLIEWSKDYCRNDVLVLSKVWLEFKNAVEDIFNCELVDQTMTLAGLSYKLFQANMPFDVELRHPNKEDYFNMREALIGGRCISVNGIYKDVLCLDVKSLYPASMAFYDQPYGSFKRVSSRPKDELGIYYVRVTPNRNNKSNFFPIRSHNKITYNNFEESTYIAWYTNVDIDIGLSEGHNIEYIPFDNYGNIGYSWSKKGKIFEKYIKDVLYKLKIKYEKQNNKVKRNVIKIIMNSLWGKFAQKWVNFEYFIKSEDDIDFESEEAYKIWDTDFMLIKKIKESTYSSKPIQNGVFTLSWARYHMKSIWDAGAKEGAECIYSDTDSIFVHKEHFKKNAKFMLNGLKVPIIGSEVGQLELECEFDKLLCAGKKQYMGFYTYFQDGKPCIKEKKRFKGIPSNYIIPELYAHLLSGADKEAKIQFLKFRREWGSVKGYIENKTVKAT,1.86 fold
4,I729F: TP-DNAP1 variant (protein) MDYKDKALNDLRNVYADFDSLPLDFRQILIKDRATLLQKEDVEKKILERQEDAKKYAEYLKQSEIPERISLPNIKRHKGVSISFEETSEDMVLEPRPFIFDGLNIRCFRRETIFSLKNKILNMVKESSSFKNVSRQSVSFMYFKIFNKGKVIASTKSVNIYEDKIDERLEDLCNNFDDVLKKIIDVTYGYESLFVSETYSYVIFYAKSIYFPQPRCVNNWGNNIPNILTFDSFKLFTANKNNVSCIKQCSRFLWQKDFNTLEEMIEYKNGNICIVTPQLHINDVRDIKSFNDIRLYSESPIKTFSVIDNTITYLFYFKEHLGVIFNITKSRHDRRVTKFSPLSKFSDVKNITVCFDIESYFDPEKESNQVNIPFICCASIIYNKVIGNIVDFEGRDCVAQMIEYVVDICGELNISSVELIAHNGGGYDFHYILSSMYNPAAIKNILIRNNSFISFNFAHDGVKFSVKDSYSFLLCSLANASKAFLNEETFKKTDFPHHDLKTADDLYKVYKEWSSVNTEINHVVEKEKLLITSEHIVNFTKNDKSKTLIEWSKDYCRNDVLVLSKVWLEFKNAVEDIFNCELVDQTMTLAGLSYKLFQANMPFDVELRHPNKEDYFNMREALIGGRCISVNGIYKDVLCLDVKSLYPASMAFYDQPYGSFKRVSSRPKDELGIYYVRVTPNRNNKSNFFPIRSHNKITYNNFEESTYIAWYTNVDIDIGLSEGHNIEYFPFDSYGNIGYSWSKKGKIFEKYIKDVLYKLKIKYEKQNNKVKRNVIKIIMNSLWGKFAQKWVNFEYFIKSEDDIDFESEEAYKIWDTDFMLIKKIKESTYSSKPIQNGVFTLSWARYHMKSIWDAGAKEGAECIYSDTDSIFVHKEHFKKNAKFMLNGLKVPIIGSEVGQLELECEFDKLLCAGKKQYMGFYTYFQDGKPCIKEKKRFKGIPSNYIIPELYAHLLSGADKEAKIQFLKFRREWGSVKGYIENKTVKAT,1.7 fold
5,I729W: TP-DNAP1 variant (protein) MDYKDKALNDLRNVYADFDSLPLDFRQILIKDRATLLQKEDVEKKILERQEDAKKYAEYLKQSEIPERISLPNIKRHKGVSISFEETSEDMVLEPRPFIFDGLNIRCFRRETIFSLKNKILNMVKESSSFKNVSRQSVSFMYFKIFNKGKVIASTKSVNIYEDKIDERLEDLCNNFDDVLKKIIDVTYGYESLFVSETYSYVIFYAKSIYFPQPRCVNNWGNNIPNILTFDSFKLFTANKNNVSCIKQCSRFLWQKDFNTLEEMIEYKNGNICIVTPQLHINDVRDIKSFNDIRLYSESPIKTFSVIDNTITYLFYFKEHLGVIFNITKSRHDRRVTKFSPLSKFSDVKNITVCFDIESYFDPEKESNQVNIPFICCASIIYNKVIGNIVDFEGRDCVAQMIEYVVDICGELNISSVELIAHNGGGYDFHYILSSMYNPAAIKNILIRNNSFISFNFAHDGVKFSVKDSYSFLLCSLANASKAFLNEETFKKTDFPHHDLKTADDLYKVYKEWSSVNTEINHVVEKEKLLITSEHIVNFTKNDKSKTLIEWSKDYCRNDVLVLSKVWLEFKNAVEDIFNCELVDQTMTLAGLSYKLFQANMPFDVELRHPNKEDYFNMREALIGGRCISVNGIYKDVLCLDVKSLYPASMAFYDQPYGSFKRVSSRPKDELGIYYVRVTPNRNNKSNFFPIRSHNKITYNNFEESTYIAWYTNVDIDIGLSEGHNIEYWPFDSYGNIGYSWSKKGKIFEKYIKDVLYKLKIKYEKQNNKVKRNVIKIIMNSLWGKFAQKWVNFEYFIKSEDDIDFESEEAYKIWDTDFMLIKKIKESTYSSKPIQNGVFTLSWARYHMKSIWDAGAKEGAECIYSDTDSIFVHKEHFKKNAKFMLNGLKVPIIGSEVGQLELECEFDKLLCAGKKQYMGFYTYFQDGKPCIKEKKRFKGIPSNYIIPELYAHLLSGADKEAKIQFLKFRREWGSVKGYIENKTVKAT,1.97 fold
6,I729V: TP-DNAP1 variant (protein) MDYKDKALNDLRNVYADFDSLPLDFRQILIKDRATLLQKEDVEKKILERQEDAKKYAEYLKQSEIPERISLPNIKRHKGVSISFEETSEDMVLEPRPFIFDGLNIRCFRRETIFSLKNKILNMVKESSSFKNVSRQSVSFMYFKIFNKGKVIASTKSVNIYEDKIDERLEDLCNNFDDVLKKIIDVTYGYESLFVSETYSYVIFYAKSIYFPQPRCVNNWGNNIPNILTFDSFKLFTANKNNVSCIKQCSRFLWQKDFNTLEEMIEYKNGNICIVTPQLHINDVRDIKSFNDIRLYSESPIKTFSVIDNTITYLFYFKEHLGVIFNITKSRHDRRVTKFSPLSKFSDVKNITVCFDIESYFDPEKESNQVNIPFICCASIIYNKVIGNIVDFEGRDCVAQMIEYVVDICGELNISSVELIAHNGGGYDFHYILSSMYNPAAIKNILIRNNSFISFNFAHDGVKFSVKDSYSFLLCSLANASKAFLNEETFKKTDFPHHDLKTADDLYKVYKEWSSVNTEINHVVEKEKLLITSEHIVNFTKNDKSKTLIEWSKDYCRNDVLVLSKVWLEFKNAVEDIFNCELVDQTMTLAGLSYKLFQANMPFDVELRHPNKEDYFNMREALIGGRCISVNGIYKDVLCLDVKSLYPASMAFYDQPYGSFKRVSSRPKDELGIYYVRVTPNRNNKSNFFPIRSHNKITYNNFEESTYIAWYTNVDIDIGLSEGHNIEYVPFDSYGNIGYSWSKKGKIFEKYIKDVLYKLKIKYEKQNNKVKRNVIKIIMNSLWGKFAQKWVNFEYFIKSEDDIDFESEEAYKIWDTDFMLIKKIKESTYSSKPIQNGVFTLSWARYHMKSIWDAGAKEGAECIYSDTDSIFVHKEHFKKNAKFMLNGLKVPIIGSEVGQLELECEFDKLLCAGKKQYMGFYTYFQDGKPCIKEKKRFKGIPSNYIIPELYAHLLSGADKEAKIQFLKFRREWGSVKGYIENKTVKAT,1.87 fold
